Reference: US20070166779

T1: recombinant human SLPI
T1 chain: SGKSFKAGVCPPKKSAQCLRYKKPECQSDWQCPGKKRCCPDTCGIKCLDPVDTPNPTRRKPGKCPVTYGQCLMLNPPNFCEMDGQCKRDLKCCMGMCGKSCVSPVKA

T2: SLPI present in human saliva
T2 chain: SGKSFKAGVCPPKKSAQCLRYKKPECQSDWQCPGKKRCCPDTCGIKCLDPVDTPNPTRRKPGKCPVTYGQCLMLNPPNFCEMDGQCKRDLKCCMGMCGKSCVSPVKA


Columns and labels:
[1] = target: T1, recombinant human SLPI
[2] = target: T2, SLPI present in human saliva

Row | Protein | cleavage of rSLPI, LC/MS (1 ug rSLPI, 50 ng protease, 5 hours) [1] | cleavage of the reduced form of rSLPI [1] | cleavage of SLPI in human saliva, Western analysis [2] | cleavage of rSLPI at ten-fold excess of rSLPI (data not shown) [1] | cleavage of rSLPI, LC/MS (second peak with additional 18 mass units) [1] | cleavage of rSLPI, SDS-PAGE with Coomassie stain (rSLPI:chymase molar ratio 40:1, 37 C) [1]
1 | elastase (protein) IVGGRRARPHAWPFMVSLQLRGGHFCGATLIAPNFVMSAAHCVANVNVRAVRVVLGAHNLSRREPTRQVFAVQRIFENGYDPVNLLNDIVILQLNGSATINANVQVAQLPAQGRRLGNGVQCLAMGWGLLGRNRGIASVLQELNVTVVTSLCRRSNVCTLVRGRQAGVCFGDSGSPLVCNGLIHGIASFVRGGCASGLYPDAFAPVAQFVNWIDSIIQ | did not result in the formation of the second peak | Reduction of the rSLPI samples in the presence of the proteases did result in cleavage of the SLPI protein | Minor digestion of SLPI was observed after the saliva was incubated with elastase | – | – | –
2 | cathepsin G (protein) IIGGRESRPHSRPYMAYLQIQSPAGQSRCGGFLVREDFVLTAAHCWGSNINVTLGAHNIQRRENTQQHITARRAIRHPQYNQRTIQNDIMLLQLSRRVRRNRNVNPVALPRAQEGLRPGTLCTVAGWGRVSMRRGTDTLREVQLRVQRDRQCLRIFGSYDPRRQICVGDRRERKAAFKGDSGGPLLCNNVAHGIVSYGKSSGVPPEVFTRVSSFLPWIRTTMRS | did not result in the formation of the second peak | Reduction of the rSLPI samples in the presence of the proteases did result in cleavage of the SLPI protein | The larger SLPI cleavage product was not observed when the saliva samples were incubated with cathepsin G, tryptase and proteinase 3 | – | – | –
3 | human chymase (protein) IIGGTECKPHSRPYMAYLEIVTSNGPSKFCGGFLIRRNFVLTAAHCAGRSITVTLGAHNITEEEDTWQKLEVIKQFRHPKYNTSTLHHDIMLLKLKEKASLTLAVGTLPFPSQFNFVPPGRMCRVAGWGRTGVLKPGSDTLQEVKLRLMDPQACSHFRDFDHNLQLCVGNPRKTKSAFKGDSGGPLLCAGVAQGIVSYGRSDAKPPAVFTRISHYRPWINQILQAN | – | – | exogenous chymase cleaved SLPI in the saliva sample as it did with the rSLPI | Even in a ten-fold excess of rSLPI to chymase most of the rSLPI protein was cleaved | the presence of the second peak indicated that chymase indeed cleaved rSLPI | cleavage of recombinant human SLPI was observed after rSLPI was incubated with human chymase for about 20 minutes
4 | proteinase 3 (protein) IVGGHEAQPHSRPYMASLQMRGNPGSHFCGGTLIHPSFVLTAAHCLRDIPQRLVNVVLGAHNVRTQEPTQQHFSVAQVFLNNYDAENKLNDVLLIQLSSPANLSASVATVQLPQQDQPVPHGTQCLAMGWGRVGAHDPPAQVLQELNVTVVTFFCRPHNICTFVPRRKAGICFGDSGGPLICDGIIQGIDSFVIWGCATRLFPDFFTRVALYVDWIRSTLR | did not result in the formation of the second peak | Reduction of the rSLPI samples in the presence of the proteases did result in cleavage of the SLPI protein | The larger SLPI cleavage product was not observed when the saliva samples were incubated with cathepsin G, tryptase and proteinase 3 | – | – | –
